B1: WC-168 (antibody, human IgG1, lambda, V domains shown)
VH: EVQLVQSGAEVKKPGASVKVSCKASGYNFTGYYMHWVRQAPGQGLEWMGWINPNSGGTNYAQKFQGRVTMTRDTSISTAYMELSRLRSDDTAVYYCATDSFDYWGRGTLVTVSS
VL: not shown
notes: also called N1wc168; hN1wc-168
B2: WC-97 (antibody, human IgG1, lambda, V domains shown)
VH: B1 VH with T69A, T91S, L109T
VL: QSVLTQPPSVSGAPGQRVTISCTGTSSNIGAGYDVQWYQQLPGTAPKVLMYGNSNRPSGVPDRFSGSKSGTSASLAITGLQAEDEADYYCQSYDSSLSGSLFGTGTKVTVLQ
notes: also called N1wc97; hN1wc-97
B3: S3-056 (antibody, human IgG1, lambda, V domains shown)
VH: B1 VH with E1Q, V5Q
VL: not shown
notes: also called hN1S3-056; HN1S3-56
B4: S3-013 (antibody, human IgG1, lambda, V domains shown)
VH: B1 VH
VL: QPVLTQPPSASGTPGQRVTISCSGSSSNIGSNYVYWYQKFPGTAPKLLIYTNNQRPSGVPDRFSGSKSGTSASLAISGLRSEDEADYYCAAWDDSLSGVVFGGGTKVTVLQ
notes: also called hN1S3-013; HN1S3-13
B5: WC-159 (antibody, human IgG1, lambda, V domains shown)
VH: QLQLVETGGGLVKPGESLTLSCAASGFTFSSYSMNWVRQAPGKGLEWVSSISSSGSSIYYADSLKGRFTISRDNAKNSLYLQMNSLRAEDTAVYYCTRGTQWLAGVGDYWGKGTLVTVSS
VL: QSALTQPPSASASPGQSVTISCTGTSSDVGAYDSVSWYQQHPGKAPKLIIYDVNNRPSGVSNRFSGSESGNTASLTISGLQAEDEANYYCSSYRNTKTVVFGGGTKLTVLQ
notes: also called N1wc159
B6: WC-155 (antibody, human IgG1, lambda, V domains shown)
VH: B1 VH
VL: QSVLTQPPSVSGAPGQRVTISCTGSSSNIGAGYDVLWYRQLPGTAPKLLIYGNTHRPSGVPDRFSGSNSGTSASLAITGLQAEDEADYYCQSYDSSLSGSVFGGGTKLTVLQ
notes: also called N1wc155; hN1wc-155
B7: WC-173 (antibody, human IgG1, lambda, V domains shown)
VH: B1 VH with R106Q, L109T
VL: QPVLTQPPSASWTPGQRVTISCSGSSSNIGSNTVHWYRQFPGTAPQLLIYSNNQRPSGVPDRFSGSKSGTSASLAIRGLQSEDEADYYCAAWDDSLNGVVFGGGIKLTVLQ
notes: also called N1wc173; hN1wc-173
B8: FL-SKNAS-C2-514 (antibody, human IgG1, lambda, V domains shown)
VH: EVQLVQSGAEVKEPGESLRISCKASGYDFSNYWIAWVRQMPGKGLEWMGIIYPGDSDTRYSPSFQGQVTISVDRSISTAYLQWSSLKASDTALYYCSRPTYWSTTWGREFDYWGQGTLVTVSS
VL: SYELTQPPSVSVSPGQTATITCSGDALPKKYAYWYQQKSGQAPVLVVYEDSKRPSGIPERFSGSSSGTMATLTISGAQVEDEADYYCYSTDSSGNHWVFGGGTKLTVLG
notes: full IgG1/lambda chains; name tied through the DNA section of Appendix IX (same order); also called B-000000402-000X
B9: FL-JEG3-C2-11 (antibody, human IgG1, lambda, V domains shown)
VH: QLQLVETGGGLVQPVGSLRLSCAASGFSFDNYAMSWVRQAPGKGLEWVSSISGSGGQIFYADSVKGRFTISRDNAKNTLVLQMNSLRVDDTAVYYCARDFYRTPGYNTNWGYWGRGTMVTVSS
VL: SYVLTQPPSVSVSPGETASISCSGDGLGNKYVAWYQQKPGQSPVLVIQQDSKRPSGIPERFSGSNSGDTATLTISGTQSLDEGDYYCQAWDRPAVIFGGGTKLTVLG
notes: full IgG1/lambda chains; name tied through the DNA section of Appendix IX (same order); also called JEG-C2-11; B-000000399-000E
B10: FL-SKNAS-D2-268 (antibody, human IgG1, lambda, V domains shown)
VH: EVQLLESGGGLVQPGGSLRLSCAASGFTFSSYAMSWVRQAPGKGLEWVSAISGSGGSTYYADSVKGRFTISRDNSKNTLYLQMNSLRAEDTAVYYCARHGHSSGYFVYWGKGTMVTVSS
VL: QAVLTQPSSVSGAPGQRVTISCTGTSSNIGAPYDVNWYQQLPGIAPKLLISGNTNRPSGVPDRFSGSKSGASASLAITGLQADDEADYYCQSYDHSLSGWVFGGGTKVTVLG
notes: full IgG1/lambda chains; name tied through the DNA section of Appendix IX (same order); also called B-000000395-000V
B11: A2780-C2-16 (antibody, human IgG1, lambda, V domains shown)
VH: EVQLVQSGAEVKKPGSSVKVSCKASGGTFSSFAFSWVRQAPGQGLDWMGRIIPILGRTNYAQKFQGRVTFTADTSTSTVYMELSSLSSEDTAVYYCARDREYSLSLGGSDYWGQGTLVTVSS
VL: QAVLTQPSSVSGAPGQRVTISCIGSSSNIGAGYDVHWYRQPPGTAPQLLIYANTNRPSGVPDRFSGSRSGTSASLAITGIQAEDEADYYCQSYDSSLSGRVFGGGTKVTVLG
notes: full IgG1/lambda chains; name tied through the DNA section of Appendix IX (same order); also called B-000000397-000M

Residue numbers refer to the chain shown, from its start.

One test concerns the target T1, human full-length Notch1 with C-terminal FLAG tag, stably expressed on 293 FlpIn (TREx) cells (human, UniProt P46531 19-2555).
T1 construct: tetracycline/doxycycline-induced expression from pcDNA5/FRT/TO-HN1+FLAG; also called hN1; 293_N1
As to the kind of experiment: FACS, hN1 293 cells, MFI grade (+ 11-100). Here is the method: (§1) Notch 293 FlpIn (TREx) cells were treated with dox (2 ug/ml) for two days to induce Notch expression before collecting them for FACS surface expression analysis. The cells were harvested from tissue culture flasks using Trypsin for 15 min, centrifuged at 1200 rpm for 10 minutes and resuspended in 2 ml PBS with 2% fetal bovine serum (2% FBS/PBS). The cells were counted, adjusted to 10⁷ cells/ml and 0.1 ml of cells was incubated with 1 ug of each Mab for 40 minutes at 4° C. The cells were washed, resuspended in 0.1 ml 2% FBS/PBS and incubated with 1 ug R-PE-conjugated goat anti-human Ig (Jackson ImmunoResearch) for 30 minutes at 4° C. Cells were washed, resuspended in 0.3 ml PBS with 10% formaldehyde and analyzed on a FACSCalibur (Becton Dickinson, Mt View, Calif.).
A general note: Flow cytometry measures light scatter and fluorescence of single cells or particles in a stream.
B1 yielded an MFI of 11 to 100 mfi.
Same read-out and setting: as for B2, the figure is 11 to 100 mfi; as for B3, 11 to 100 mfi.
Same read-out and setting: as for B4, the figure is 11 to 100 mfi.

Another test deals with T2, human Notch3-Gal4 chimeric receptor on U2OS FlpIn TREx cells (human, UniProt Q9UM47 40-2321). Kind of test: cell-based or functional assay.
As for B5, the “hN3, inhibition of Luc activity at [166 nM] Mab” value (“hN3, inhibition of Luc activity” below) is < 10%.
The same measure, in the same setting: as for B1, the figure is < 10%.
Same read-out and setting: as for B6, the figure is < 10%.
On the same count and under the same terms, as for B2, the figure is < 10%.
Take B7: the “hN3, inhibition of Luc activity” value is < 20%.
For the molecule B3, the “hN3, inhibition of Luc activity” value is < 10%.
For the molecule B4, the “hN3, inhibition of Luc activity” value was < 10%.

Another test concerns the target T2, human Notch3-Gal4 chimeric receptor on …. Kind of test: cell-based or functional assay. This is another data set of the same source.
Regarding B8, the “hN3, inhibition of Luc activity” value is < 5%.
On the same count and under the same terms, as for B9, the figure is < 5%.
Same read-out and setting: as for B10, the figure is < 5%; as for B11, < 15%.

Another test addresses T1, human full-length Notch1 with …. Kind of test: FACS, hN1 293 cells, MFI grade (++++ >1000). How it is done: as §1
Clones were analyzed as described in Section I-Example 12. We analyzed the corresponding Mabs for their binding to 293-N1, -N3 and 293 parental cells by flow cytometry.
Turning to B8, the MFI was > 1000 mfi.
On the same count and under the same terms, as for B9, the figure is > 1000 mfi; as for B10, > 1000 mfi; as for B11, > 1000 mfi.

The next test shares this target. As to the kind of experiment: FACS, hN1 293 cells, MFI grade (++ 101-500). How it is done:
as §1
The molecule B6 showed an MFI of 101 to 500 mfi.
Molecule B7 returned an MFI of 101 to 500 mfi.

The target of the next test is T3, Notch1 extracellular fragment (amino acid 19-526) Fc fusion protein, R&D Systems 3647-TK (human, UniProt P46531 19-526).
T3 construct: bought protein; also called Notch1/Fc; Notch1-ECD Fc fusion protein; not shown: Fc of the bought fusion protein
As to the kind of experiment: BIAcore SPR, Notch1/Fc on CM5, Mab analyte, 1:1 binding. Here is the method:
All experiments were performed at 25° C. at a flow rate of 40 μl/min. […] FC1 was used as the reference cell. Specific signals were the results of differences of signals obtained on FC2 versus FC1. […] The dissociation phase of the analyte was monitored over a period of time ranging 10-30 minutes. Running buffer was also injected under the same conditions as a reference.
Equilibrium dissociation constant (KD) was calculated by the ratio between dissociation (koff) and association (kon) rate constants.
Background: SPR reads the build-up and loss of mass on a sensor chip optically.
For orientation: Kd means the constant that tells how readily two partners part at equilibrium. Higher therefore signals lower affinity. What is called koff is the rate constant with which the complex falls apart. Read a high koff as a short-lived complex. For orientation: kon means the rate constant with which the complex forms. A lower kon goes with slow association. B1 came in with a Kd of 4.7 nM, a koff of 0.00228 s⁻¹ and a kon of 486000 M⁻¹ s⁻¹.
For B6, in that order: 1.74 nM, 0.00029 s⁻¹ and 166000 M⁻¹ s⁻¹.
For B2, in that order: 7.87 nM, 0.000438 s⁻¹ and 55600 M⁻¹ s⁻¹.
B7 returned a Kd of 3.27 nM, an off-rate constant (koff) of 0.000447 s⁻¹ and an on-rate constant (kon) of 137000 M⁻¹ s⁻¹.
With B3, the Kd came to 5.65 nM, the dissociation rate constant (koff) is 0.00292 s⁻¹ and the kon was 517000 M⁻¹ s⁻¹.
In the same order, the values of B4 are 4.92 nM, 0.00294 s⁻¹ and 597000 M⁻¹ s⁻¹.

In the next test the target is T3, Notch1 extracellular fragment (amino …). As to the kind of experiment: titration ELISA, antigen coated, purified IgG1. How it is done: Plates were blocked with 300 ul of milk blocker per well and incubated for 2 hour at RT. […] After washing plates with PBS or TBS buffer, anti-human lambda light chain antibody with HRP was used for detection antibody and absorbance at 450 nm was read with a plate reader.
(In general: An ELISA detects its analyte on a solid surface through an enzyme-linked reagent.)
A word on the EC50: it is the concentration at which the effect is half-maximal. Turning to B5, a half-maximal effect (EC50) was put at 0.12 nM.

Values taken from patent publication US20110286916A1 (published 2011).
